Experimental data: patent publication US20260207766A1 (Bristol-Myers Squibb, published 2026)

T1: 6xHis-A3-B3 huCEACAM5 (human, UniProt P06731 501-685, N-linked glycans (seven predicted sites))
T1 construct: For cryo-EM it was expressed in Expi293F GnTI- cells; also called hCEACAM5-A3-B3 construct; human CEACAM5 A3-B3 domain protein
T1 sequence: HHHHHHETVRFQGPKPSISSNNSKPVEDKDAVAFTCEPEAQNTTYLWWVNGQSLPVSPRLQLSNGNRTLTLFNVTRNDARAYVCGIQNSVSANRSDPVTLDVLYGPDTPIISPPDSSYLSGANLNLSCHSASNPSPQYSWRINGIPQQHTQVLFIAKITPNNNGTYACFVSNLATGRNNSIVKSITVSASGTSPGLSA

T2: human CEACAM5 on cells (human, UniProt P06731 35-685)
T2 construct: Endogenous on MKN45, Ls174T, BxPC-3; overexpressed on HCT116; also called huCEACAM5; HCT116-huCEACAM5
T2 sequence: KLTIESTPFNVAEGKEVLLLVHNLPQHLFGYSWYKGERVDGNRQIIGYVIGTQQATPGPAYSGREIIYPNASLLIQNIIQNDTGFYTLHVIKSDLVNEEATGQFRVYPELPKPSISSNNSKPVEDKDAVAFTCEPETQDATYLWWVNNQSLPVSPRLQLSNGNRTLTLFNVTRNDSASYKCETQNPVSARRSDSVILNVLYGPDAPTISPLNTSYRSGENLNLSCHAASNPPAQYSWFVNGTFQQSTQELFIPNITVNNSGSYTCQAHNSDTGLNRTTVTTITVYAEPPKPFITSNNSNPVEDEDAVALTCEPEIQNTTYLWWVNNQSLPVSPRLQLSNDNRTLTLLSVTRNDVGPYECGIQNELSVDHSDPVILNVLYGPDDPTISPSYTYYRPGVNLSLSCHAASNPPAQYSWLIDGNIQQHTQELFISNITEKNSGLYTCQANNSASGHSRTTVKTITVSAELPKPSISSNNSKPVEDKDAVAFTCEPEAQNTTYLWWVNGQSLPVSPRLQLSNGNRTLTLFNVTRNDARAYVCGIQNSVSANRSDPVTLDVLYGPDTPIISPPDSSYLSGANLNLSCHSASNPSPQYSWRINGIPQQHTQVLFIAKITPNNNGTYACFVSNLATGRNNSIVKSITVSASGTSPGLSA

T3: human CEACAM1 on CHO-S cells (human, UniProt P13688 35-526)
T3 construct: whole, on cells; also called CHO-S-huCEACAM1
T3 sequence (looked up): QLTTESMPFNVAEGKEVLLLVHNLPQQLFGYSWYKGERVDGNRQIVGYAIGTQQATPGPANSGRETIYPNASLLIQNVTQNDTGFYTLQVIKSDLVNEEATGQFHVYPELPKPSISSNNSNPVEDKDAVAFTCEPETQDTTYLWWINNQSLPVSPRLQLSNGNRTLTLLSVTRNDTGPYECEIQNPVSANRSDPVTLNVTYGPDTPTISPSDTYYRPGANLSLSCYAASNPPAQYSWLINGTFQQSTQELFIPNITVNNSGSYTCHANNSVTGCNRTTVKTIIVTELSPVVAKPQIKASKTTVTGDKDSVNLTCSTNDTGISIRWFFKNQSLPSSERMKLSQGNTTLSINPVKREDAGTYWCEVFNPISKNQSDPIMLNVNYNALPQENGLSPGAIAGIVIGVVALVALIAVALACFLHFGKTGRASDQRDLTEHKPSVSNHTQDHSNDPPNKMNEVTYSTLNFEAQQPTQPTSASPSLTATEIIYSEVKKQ

T4: human CEACAM6 on HCT116 cells (human, UniProt P40199 35-320)
T4 construct: whole, on cells; also called HCT116-huCEACAM6
T4 sequence (looked up): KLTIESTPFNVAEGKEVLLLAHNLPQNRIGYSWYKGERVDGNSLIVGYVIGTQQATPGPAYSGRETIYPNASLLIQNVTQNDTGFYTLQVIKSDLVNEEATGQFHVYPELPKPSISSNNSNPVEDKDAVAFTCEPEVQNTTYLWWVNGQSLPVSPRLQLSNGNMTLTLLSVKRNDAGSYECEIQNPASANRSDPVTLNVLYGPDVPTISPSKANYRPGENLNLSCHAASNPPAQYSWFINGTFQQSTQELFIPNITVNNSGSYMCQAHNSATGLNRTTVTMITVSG

T5: full-length human CEACAM5 (recombinant, internally generated) (human, UniProt P06731 35-685, limits assumed)
T5 construct: Printed only as 'full-length'; also called Full-length huCEACAM5; biotinylated human CEACAM5
T5 sequence: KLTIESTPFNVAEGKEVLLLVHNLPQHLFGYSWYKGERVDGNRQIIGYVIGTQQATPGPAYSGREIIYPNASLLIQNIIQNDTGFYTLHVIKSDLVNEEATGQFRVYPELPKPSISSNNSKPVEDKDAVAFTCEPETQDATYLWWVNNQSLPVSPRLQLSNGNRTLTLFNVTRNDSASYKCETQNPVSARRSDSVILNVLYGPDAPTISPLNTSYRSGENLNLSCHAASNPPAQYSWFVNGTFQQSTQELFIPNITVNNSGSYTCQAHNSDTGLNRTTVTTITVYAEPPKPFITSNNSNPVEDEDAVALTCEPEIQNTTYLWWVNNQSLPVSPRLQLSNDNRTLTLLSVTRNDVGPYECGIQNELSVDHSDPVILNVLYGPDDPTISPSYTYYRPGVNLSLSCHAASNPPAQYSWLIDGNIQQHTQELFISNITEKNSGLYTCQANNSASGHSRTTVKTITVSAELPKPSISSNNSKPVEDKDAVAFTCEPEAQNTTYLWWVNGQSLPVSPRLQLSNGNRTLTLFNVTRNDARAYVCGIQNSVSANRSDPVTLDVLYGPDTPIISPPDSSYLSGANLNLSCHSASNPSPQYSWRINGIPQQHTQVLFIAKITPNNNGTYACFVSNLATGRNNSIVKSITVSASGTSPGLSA

T6: human CEACAM7 (R&D Systems catalog #9010-CM-050) (human, UniProt Q14002 36-242, limits assumed)
T6 sequence (looked up): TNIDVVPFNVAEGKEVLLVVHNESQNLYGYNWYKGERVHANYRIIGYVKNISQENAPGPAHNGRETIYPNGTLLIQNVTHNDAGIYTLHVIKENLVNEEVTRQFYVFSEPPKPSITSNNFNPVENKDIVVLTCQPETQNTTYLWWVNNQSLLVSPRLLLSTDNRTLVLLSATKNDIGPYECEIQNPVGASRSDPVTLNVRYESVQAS

T7: human CEACAM8 (R&D Systems catalog #9639-CM-050) (human, UniProt P31997 35-320, limits assumed)
T7 sequence (looked up): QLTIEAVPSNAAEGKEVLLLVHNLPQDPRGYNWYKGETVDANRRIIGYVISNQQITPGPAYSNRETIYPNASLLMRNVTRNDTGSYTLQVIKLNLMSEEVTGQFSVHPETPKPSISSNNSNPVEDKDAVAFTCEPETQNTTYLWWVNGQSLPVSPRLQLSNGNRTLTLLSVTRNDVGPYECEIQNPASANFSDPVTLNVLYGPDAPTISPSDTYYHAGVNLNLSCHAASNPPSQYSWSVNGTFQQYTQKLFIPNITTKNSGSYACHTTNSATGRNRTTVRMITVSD


Experiments:
[1] = target: T1, 6xHis-A3-B3 huCEACAM5; assay: cryo-EM of CEACAM5 A3-B3 with both Fabs
Procedure: Below is a description of the different steps and methods that were performed.
After the incubation period, 50 μl of complexing reaction solution was passed through a Bio-Spin 30 Size-exclusion chromatography column (30 kDa MWCO, BioRad) to remove any contaminants and Apo-CEACAM5. Prior to use, Bio-Spin 30 columns were equilibrated with 1×PBS, and samples were applied according to the manufacturer's protocol.

[2] = target: T2, human CEACAM5 on cells; assay: FACS on MKN45 cells
[3] = target: T1, 6xHis-A3-B3 huCEACAM5; assay: SPR Biacore 8K 37C, mAb captured on anti-human Fc, antigen analyte, 1:1 Langmuir fit
Procedure: SPR analyses were conducted at 37° C. using a Biacore 8K instrument primed with 1×HBSP+ running water and docked with a CM5 sensor chip equilibrated to room temperature, followed by re-priming of the instrument. The chip surface was activated by injecting an ethyl(dimethylaminopropyl) carbodiimide (EDC)/N-hydroxysuccinimide (NHS) mixture for 7 minutes at 10 μL/min. The activated chip surface was then immobilized with an anti-human Fc capture reagent (at 25 μg/mL in acetate pH 5 buffer) injected on the chip surface for 7 minutes at 10 μL/min to yield an immobilization level of about 9000 RU. The remaining chip surface was blocked by injecting ethanolamine for 7 minutes at 10 μL/min.
The kinetic data for anti-CEACAM5 mAb:CEACAM5 binding were fit to a 1:1 Langmuir binding with Rmax to provide estimates of the kinetic and affinity values for the corresponding interactions.

[4] = target: T3, human CEACAM1 on CHO-S cells; assay: flow cytometry, CHO-S cells overexpressing human CEACAM1
[5] = target: T4, human CEACAM6 on HCT116 cells; assay: flow cytometry on HCT-116 (CEACAM-6) cells
[6] = target: T2, human CEACAM5 on cells; assay: FACS on BxPC3 cells
[7] = target: T2, human CEACAM5 on cells; assay: FACS on LS174T cells
[8] = target: T2, human CEACAM5 on cells; assay: cell binding, MKN45 cells
[9] = target: T5, full-length human CEACAM5 (recombinant, …); assay: SPR Biacore, mAb captured on anti-human Fc, full-length antigen analyte, 1:1 fit
Excerpt: The BIACORE® instrument was primed with 1×HBSP+ running buffer (Cytiva catalog no. BR100671). The CM5 chip (Cytiva catalog no. 29149604) was equilibrated to room temperature, and the BIACORE® instrument was re-primed. A human antibody Fc capture kit (Cytiva catalog no. 29234600) was utilized for this analysis. The human antibody Fc capture reagent was immobilized to both flow cells in all 8 flow channels of the CM5 chip via amine-coupling using the following conditions. Immobilization was performed at a temperature of 25° C. The anti-human Fc capture reagent was diluted to a concentration of 25 μg/mL in acetate pH5 buffer. The chip surface was activated by injecting a mixture of 1-ethyl-3-(-3-dimethylaminopropyl) carbodiimide hydrochloride (EDC) and N-hydroxy succinimide (NHS) for 420 seconds at a rate of 10 microliters per minute (uL/min). A concentration (25 ug/mL) of anti-human Fc capture reagent was then injected on the surface for 420 seconds at a rate of 10 uL/min. The remaining chip surface was blocked by injecting ethanolamine for 420 seconds at a rate of 10 uL/min.
The SPR kinetics against full-length human and cyno CEACAM5 were set up as follows. The antibody capture was performed by diluting the antibodies to a concentration of 10 nM in HBSP+ buffer. The 10 nM mAbs were captured for 20 seconds at 5 uL/min to achieve capture levels of approximately 100 RU. […] The association rate was 180 seconds at 30 uL/min. The dissociation rate was 600 seconds at 30 uL/min. Regeneration was performed using two injections of 3M magnesium chloride MgCl₂ for 30 seconds at 30 uL/min. A data fit was performed using a 1:1 binding model with global Rmax. Rmax reflects the maximal response when all ligand is occupied.

[10] = target: T6, human CEACAM7 (R&D Systems catalog …); assay: SPR
[11] = target: T7, human CEACAM8 (R&D Systems catalog …); assay: SPR
[12] = target: T2, human CEACAM5 on cells; assay: cell-based or functional assay
[13] = target: T3, human CEACAM1 on CHO-S cells; assay: flow cytometry on CHO-S (CEACAM-1) cells

| Binder | binding result [1] | EC50 [2] | Kd [3] | binding result [4] | binding result [5] | EC50 [6] | EC50 [7] | EC50 [8] | Kd [9] | koff [9] | kon [9] | binding result [10] | binding result [11] | Ls174T 5-day cytotoxicity (AUC), antibody conjugated to Compound A' [12] | MKN45 5-day cytotoxicity (AUC), antibody conjugated to Compound A' [12] | binding result [13] |
| --- | --- | --- | --- | --- | --- | --- | --- | --- | --- | --- | --- | --- | --- | --- | --- | --- |
| Fab of bin 2 mAb (Fab, V domains shown, also called anti-CEACAM5 bin2 mAb Fab) VH: QVQLQESGPGLVKPSGTLSLTCAVSGGSISSSDWWSWVRQPPGKGLEWIGEIYHQGSTNYNPSLKSRVTISVDKSKNQFSLKLSSVTAADTAVYYCARASSSGYYGHDVWGQGTTVTVSS VL: DIQLTQSPSFLSASVGDRVTITCRASQGISTYLAWYQQKPGKAPKFLIYAEKTLQSGVPSRFSGSGSGTEFTLTISSLQPEDFATYYCQQLASYPFTFGPGTKVDIKR | binds |  |  |  |  |  |  |  |  |  |  |  |  |  |  |  |
| MBN001 (antibody, V domains shown, also called mAb MBN001; MBN001 parent) VH: QVQLVETGGGVVQPGRSLRLSCAASGITFSSHGMHWVRQSPGKGLEWVTFISYDGSYKSYVDSVKGRFAISRDNSKNTLYLQMNSLRPEDTAVYYCATGLTGTGAFDIWGQGTMVTVSS VL: not shown |  | 2.2 nM | 129 nM | no binding | no binding (tested: 300 nM) | 1.8 nM | 1.7 nM | 33.8 nM |  |  |  |  |  |  |  |  |
| MBP002 (antibody, IgG1, V domains shown, also called hIgG1 form of MBP008) VH: QVQLVESGGGVVQPGRSLRLSCAASGITFSSHGMHWVRQAPGKGLEWVTFISYDGSYKSYVDSVKGRFTISRDNSKNTLYLQMNSLRAEDTAVYYCATGLTGTNALDIWGQGTMVTVSS VL: not shown |  | 2.1 nM |  |  | no binding (tested: 300 nM) | 1.9 nM | 1.5 nM |  | 5.26 nM | 0.000228 s⁻¹ | 43300 M⁻¹ s⁻¹ | no binding | no binding | 18900 | 24100 | no binding (tested: 300 nM) |
